Laboratory results taken from patent publication US5622828, “High-affinity oligonucleotide ligands to secretory phospholipase A2 (sPLA2)” (Nexstar Pharmaceuticals, Inc.).

T1: secretory phospholipase A2 (sPLA2) (Homo sapiens, UniProt P14555 P14555:21-144)
T1 sequence: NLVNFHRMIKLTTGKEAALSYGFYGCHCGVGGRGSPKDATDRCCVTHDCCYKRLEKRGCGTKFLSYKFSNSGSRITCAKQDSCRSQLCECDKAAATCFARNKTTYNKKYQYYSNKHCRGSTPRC

B1: NN19.14 (ssRNA)
RNA: GGGAAAAGAAGACCGGCCGGCGCCAUAGCCGAGAUCCGAGGUGUUGAACGAUCCGAGAA
modifications: 2'-NH2 all C and U
B2: NN40 (ssRNA)
RNA: GGGAAAAGCGAAUCAUACACAAGACCCCUUGAGCUCGUGACGCAGGAGGAGGGCCGAGGAGGAAAGUCGUCACAGCUCCGCCAGAGACCAACCGAGAA
modifications: 2'-NH2 all C and U
B3: NS49 (ssRNA)
RNA: GGGAGGACGAUGCGGAUAAGGAUAAGAUCGAACGAGAGUGAACAAAGUUAAAUACAGUCUGGGGGCAGACGACUCGCCCGA
modifications: 2'-NH2 all C and U
B4: NS48 (ssRNA)
RNA: GGGAGGACGAUGCGGGCUAAGGGAAGACAAUGAGAUAGCAGACAAUCAACUACACCCAUGUGCGUCAGACGACUCGCCCGA
modifications: 2'-NH2 all C and U
B5: NS7 (ssRNA)
RNA: GGGAGGACGAUGCGGAGGAAAUGAAGUAGUGAGAGUAUAACAUGAUUAUGAAUACGUGAUGUGGCCAGACGACUCGCCCGA
modifications: 2'-NH2 all C and U
B6: NN5 (ssRNA)
RNA: GGGAAAAGCGAAUCAUACACAAGACCGGCCCCGCCAAUCAAGGGAGAUCCGAGGAAUUGGAAUGUUUGUGAGUGAGCUCCGCCAGAGACCAACCGAGAA
modifications: 2'-NH2 all C and U
B7: NS39 (ssRNA)
RNA: GGGAGGACGAUGCGGGUAGGGAUGAAGUGCGAUGUGAAUCCGGGUGCUAGCGAUGAUGUGUGCCCCAGACGACUCGCCCGA
modifications: 2'-NH2 all C and U
B8: NN11 (ssRNA)
RNA: GGGAAAAGCGAAUCAUACACAAGACCGGCCGGGGAAACCCGAGGUCCGAGGUAACGCAUGGCGCCUCACCGAGUCGCUCCGCCAGAGACCAACCGAGAA
modifications: 2'-NH2 all C and U
B9: NN16 (ssRNA)
RNA: GGGAAAAGCGAAUCAUACACAAGACCGGCCGGGGAAACCCGAGAUCCGAGGUAACGCAUGGCGCCUCACCGAGUCGCUCCGCCAGAGACCAACCGAGAA
modifications: 2'-NH2 all C and U
B10: NS10 (ssRNA)
RNA: GGGAGGACGAUGCGGUGACAAAUGAGCAAGUAGCGAUAGAUGUGAUGGACAGAGACAGCCGGGGCCAGACGACUCGCCCGA
modifications: 2'-NH2 all C and U
B11: NN18 (ssRNA)
RNA: GGGAAAAGCGAAUCAUACACAAGAGGAUGGCGGCAAGGCGCGAAAGGGAGGAUCGAGGAGGAAUCGCGUCAGGAGCUCCGCCAGAGACCAACCGAGAA
modifications: 2'-NH2 all C and U
B12: NN19.13 (ssRNA)
RNA: GGGAAAAGAAGACCGGCCGGCGCCAUAGCCGAGAUCCGAGGUGUUGAGACCAACCGAGAA
modifications: 2'-NH2 all C and U
B13: NS2 (ssRNA)
RNA: GGGAGGACGAUGCGGUAGUAACGGAUACUGAUCCGAGGUUAUAGUCACUAUAUCAUCCGCUGCGCCAGACGACUCGCCCGA
modifications: 2'-NH2 all C and U
B14: NN39 (ssRNA)
RNA: GGGAAAAGCGAAUCAUACACAAGACUGGUUGUGCGGACCCAGUGAGUGGGAGGACGUGAGGGUGGCAGCUGGGCUCCGCCAGAGACCAACCGAGAA
modifications: 2'-NH2 all C and U
B15: NS6 (ssRNA)
RNA: GGGAGGACGAUGCGGAACUAAAAGACAGAGAGAAAACGACAAUACGAAGUACAUAUAACCCUGGCCAGACGACUCGCCCGA
modifications: 2'-NH2 all C and U
B16: NN10 (ssRNA)
RNA: GGGAAAAGCGAAUCAUACACAAGACCGGCCGGCGCCAUAGCCGAGAUCCGAGGUUGUACGAUGACAACUCAGUGCUCCGCCAGAGACCAACCGAGAA
modifications: 2'-NH2 all C and U
B17: NS13 (ssRNA)
RNA: GGGAGGACGAUGCGGUGAGCUUAGGAUAGGAGCAACAAGUAGAGUAGAGUGAUAACUAGGGUGGCCAGACGACUCGCCCGA
modifications: 2'-NH2 all C and U
B18: NS12 (ssRNA)
RNA: GGGAGGACGAUGCGGUGAAAGAGAAAGGUUGAGAUGAUUACAAGCGAAUUGGAUAAGUGUCUGGCCAGACGACUCGCCCGA
modifications: 2'-NH2 all C and U
B19: 73tF (ssRNA)
RNA: GGGAGCUCAGAAUAAACGCUCAACUUACAGUUCGGCUGAGAGAAGACGCAUACUUCGACAUGAGGCCCGGAUCCGGC
modifications: 2'-F all C and U
B20: NN2 (ssRNA)
RNA: GGGAAAAGCGAAUCAUACACAAGAGACCGGCCAGCCAAGGCGCUGAGAUCCGAGGUUUCAGAACCCAUCGGGUUGGCUCCGCCAGAGACCAACCGAGAA
modifications: 2'-NH2 all C and U
B21: NS1 (ssRNA)
RNA: GGGAGGACGAUGCGGAUAAGGAGGAGCAAGCGAGAAAUUGAGAAGUAACAAGAUCGACAUGGCCCCAGACGACUCGCCCGA
modifications: 2'-NH2 all C and U
B22: 86tF (ssRNA)
RNA: GGGAGCUCAGAAUAAACGCUCAACGCCUCAUGCCAAUGCGGGAGGGUGGGUGGUUCGACAUGAGGCCCGGAUCCGGC
modifications: 2'-F all C and U
B23: NS18 (ssRNA)
RNA: GGGAGGACGAUGCGGAAGUAGAUGAUGGAUUGAGAUGUAAGUGUCAGUAUGAAGAGUCUCUGGGCCAGACGACUCGCCCGA
modifications: 2'-NH2 all C and U
B24: 11tF (ssRNA)
RNA: GGGAGCUCAGAAUAAACGCUCAACUUACGGGUAAAGCCGAGAAAAUGUAUUGCUUCGACAUGAGGCCCGGAUCCGGC
modifications: 2'-F all C and U
B25: NS4 (ssRNA)
RNA: GGGAGGACGAUGCGGGUAGGGAUAAGCGAGUGUACAGCGAAUACGACUCGGAAUGCUUGGUGCGCCAGACGACUCGCCCGA
modifications: 2'-NH2 all C and U
B26: 71 (ssRNA)
RNA: GGGAGCUCAGAAUAAACGCUCAAUCUCAUGCUCGUCGCACGGCGUAACCUAUUUCGACAUGAGGCCCGGAUCCGGC
B27: NS14 (ssRNA)
RNA: GGGAGGACGAUGCGGAAAUGUGUUAGUGAAUGAUUGAGAGAAGAUAGAUGAUGUUGAAGUCUGGCCAGACGACUCGCCCGA
modifications: 2'-NH2 all C and U
B28: NN1 (ssRNA)
RNA: GGGAAAAGCGAAUCAUACACAAGACGGCGAGCAUGCGGCGAGUGGAGGGGGACUGAUGGAGGGCGAGACCGUGUGCUCCGCCAGAGACCAACCGAGAA
modifications: 2'-NH2 all C and U
B29: NN22 (ssRNA)
RNA: GGGAAAAGCGAAUCAUACACAAGACGGCGAGCAUGCGGCGAGUGGAGGAGGACUGAUGGAGGGCGAGACCGUGUGCUCCGCCAGAGACCAACCGAGAA
modifications: 2'-NH2 all C and U
B30: NN30 (ssRNA)
RNA: GGGAAAAGCGAAUCAUACACAAGAGCCAGCGAGUGUCGACAGUGUGGGUGGAAGUGACGGGAGGAUUGGAGACGCUCCGCCAGAGACCAACCGAGAA
modifications: 2'-NH2 all C and U
B31: NN19.11 (ssRNA)
RNA: GGGAAAAGAAGACCGGCCGGCGCCAUAGCCGAGAUCCGAGGUGUUGAACGAUAGACCAACCGAGAA
modifications: 2'-NH2 all C and U
B32: 72F (ssRNA)
RNA: GGGAGCUCAGAAUAAACGCUCAAGACCUCUGCUUACAGCCCGGCUGAGACACUUCGACAUGAGGCCCGGAUCCGGC
modifications: 2'-F all C and U
B33: NN29 (ssRNA)
RNA: GGGAAAAGCGAAUCAUACACAAGACCGGCCCGGUGUGUAGCCGGAGAUCCGAGACUUGCUGAACGAGGUGCCACGGCUCCGCCAGAGACCAACCGAGAA
modifications: 2'-NH2 all C and U
B34: NN41 (ssRNA)
RNA: GGGAAAAGCGAAUCAUACACAAGACCGGCCCGGUGUGCAGCCGGAGAUCCGAGACUUGCUGAACAAGGUGCCACGGCUCCGCCAGAGACCAACCGAGAA
modifications: 2'-NH2 all C and U

What was measured:
Settings in all cases: tags: supplied by Eli Lilly
[1] = molecular target: T1, secretory phospholipase A2 (sPLA2); experiment: filter; TBSC, 37 C
Procedure: (§1) The nitrocellulose filter partitioning method was used as described in SELEX Patent Applications to determine the affinity of RNA ligands for sPLA_2 and for other promins. Filter discs (nitrocellulose/cellulose acetate mixed matrix, 0.45 µm pore size, Millipore) were placed on a vacuum manifold and washed with 5 ml of TBSC buffer under vacuum. Reaction mixtures, containing ^32P labeled RNA pools and sPLA_2, were incubated in TBSC for 5 minutes at 37° C., filtered, and then immediately washed with 5 ml TBSC. The filters were air-dried and counted in a Beckman liquid scintillation counter without fluor.
(§2) The dissociation constants for representative members of families I–VI, orphan and other ligands were determined by nitrocellulose filter binding experiments and are listed in Table III. Unlike random RNA, all tested ligands from the 2'OH SELEXes bound biphasically.

[2] = molecular target: T1, secretory phospholipase A2 (sPLA2); experiment: filter; monophasic; TBSC, 37 C
Procedure: as §1, §2

[3] = molecular target: T1, secretory phospholipase A2 (sPLA2); experiment: filter; like random pool; TBSC, 37 C
Procedure: as §1, §2

[4] = molecular target: T1, secretory phospholipase A2 (sPLA2); experiment: filter; biphasic, Kd2 82 nM, mole fraction 0.60; TBSC with 5 mM CaCl2, 37 C
Procedure: as §1, §2

[5] = hairpin with asymmetric internal loop

| Binder | Kd [1] [nM] | also measured |
| --- | --- | --- |
| B1 | 1 |  |
| B2 | 31 |  |
| B3 | 26 |  |
| B4 | 42 |  |
| B5 | 18 |  |
| B6 |  | Kd [2, 5]: 4.6 nM |
| B7 | 16 |  |
| B8 |  | Kd [2, 5]: 2.8 nM |
| B9 |  | Kd [2, 5]: 0.9 nM |
| GGGAAAAGAAGACCGGCCGGCGCCAUAGCCGAGAUCCGAGGUGUUGA (ssRNA, 2'-NH2 all C and U) [NN19.4] | 7.3 |  |
| B10 | 22 |  |
| B11 |  | Kd [3]: 71 nM |
| B12 | 2.2 |  |
| B13 | 22 |  |
| B14 |  | Kd [3]: 52 nM |
| B15 | 28 |  |
| B16 |  | Kd [2, 5]: 0.4 nM |
| B17 | 15 |  |

| Binder | Kd [1] [nM] | also measured |
| --- | --- | --- |
| B18 | 40 |  |
| B19 |  | Kd [2]: 14 nM |
| B20 |  | Kd [2, 5]: 1.2 nM |
| B21 | 42 |  |
| B22 |  | Kd [2]: 12 nM |
| B23 | 52 |  |
| B24 |  | Kd [2]: 7 nM |
| B25 | 24 |  |
| B26 |  | Kd [4]: 1.3 nM |
| B27 | 12 |  |
| B28 | 21 |  |
| B29 | 36 |  |
| B30 | 23 |  |
| B31 | 0.5 |  |
| B32 |  | Kd [2]: 5.6 nM |
| B33 |  | Kd [2, 5]: 2.5 nM |
| B34 |  | Kd [2, 5]: 1.2 nM |
